The values below come from US20050019862.

In this series the target is T1, human plasminogen, P00747.
T1 chain: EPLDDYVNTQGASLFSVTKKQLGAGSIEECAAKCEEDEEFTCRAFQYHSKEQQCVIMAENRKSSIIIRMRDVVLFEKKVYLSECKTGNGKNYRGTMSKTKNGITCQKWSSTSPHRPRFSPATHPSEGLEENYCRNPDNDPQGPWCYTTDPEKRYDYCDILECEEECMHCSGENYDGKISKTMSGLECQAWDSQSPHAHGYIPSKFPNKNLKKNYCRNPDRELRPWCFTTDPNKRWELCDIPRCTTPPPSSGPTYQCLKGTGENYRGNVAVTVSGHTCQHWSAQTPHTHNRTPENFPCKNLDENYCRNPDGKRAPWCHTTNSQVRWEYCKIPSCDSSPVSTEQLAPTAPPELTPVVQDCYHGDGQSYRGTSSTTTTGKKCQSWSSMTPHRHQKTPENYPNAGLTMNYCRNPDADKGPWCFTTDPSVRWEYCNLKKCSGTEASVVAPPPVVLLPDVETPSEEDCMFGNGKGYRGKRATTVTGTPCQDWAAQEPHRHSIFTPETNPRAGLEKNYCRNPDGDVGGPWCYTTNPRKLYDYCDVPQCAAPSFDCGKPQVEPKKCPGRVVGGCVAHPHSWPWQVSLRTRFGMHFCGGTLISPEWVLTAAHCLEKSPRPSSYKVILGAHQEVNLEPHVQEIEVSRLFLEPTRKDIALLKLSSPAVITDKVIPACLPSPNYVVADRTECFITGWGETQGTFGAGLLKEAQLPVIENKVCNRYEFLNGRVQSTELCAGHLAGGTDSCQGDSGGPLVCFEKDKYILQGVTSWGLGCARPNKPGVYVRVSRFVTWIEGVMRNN

B1: recombinant staphylokinase (SAK) produced in E. coli from plasmid pOXYSAK-1 (protein)
chain: SSSFDKGKYKKGDDASYFEPTGPYLMVNVTGVDGKGNELLSPHYVEFPIKPGTTLTKEKIEYYVEWALDATAYKEFRVVELDPSAKIEVTYYDKNKKKEETKSFPITEKGFVVPDLSEHIKNPGFNLITKVVIEKK
For the protein B1, the “Specific activity of purified SAK protein” value is given as 1.75 U/µg protein.
